Measured values from ChEMBL document CHEMBL5678797, “AZD7762, a novel checkpoint kinase inhibitor, drives checkpoint abrogation and potentiates DNA-targeted therapies” (Mol Cancer Ther, 2008).

Substrate: NC(=O)Nc1cc(-c2cccc(F)c2)sc1C(=O)N[C@H]1CCCNC1
Settings: Homo sapiens; Insect cell; time 20.0 min

B1: Serine/threonine-protein kinase Chk1 (Homo sapiens), O14757 (protein)
chain: MAVPFVEDWDLVQTLGEGAYGEVQLAVNRVTEEAVAVKIVDMKRAVDCPENIKKEICINKMLNHENVVKFYGHRREGNIQYLFLEYCSGGELFDRIEPDIGMPEPDAQRFFHQLMAGVVYLHGIGITHRDIKPENLLLDERDNLKISDFGLATVFRYNNRERLLNKMCGTLPYVAPELLKRREFHAEPVDVWSCGIVLTAMLAGELPWDQPSDSCQEYSDWKEKKTYLNPWKKIDSAPLALLHKILVENPSARITIPDIKKDRWYNKPLKKGAKRPRVTSGGVSESPSGFSKHIQSNLDFSPVNSASSEENVKYSSSQPEPRTGLSLWDTSPSYIDKLVQGISFSQPTCPDHMLLNSQLLGTPGSSQNPWQRLVKRMTRFFTKLDADKSYQCLKETCEKLGYQWKKSCMNQVTISTTDRRNNKLIFKVNLLEMDDKILVDFRLSKGDGLEFKRHFLKIKGKLIDIVSSQKIWLPAT
With B1 the Km was 80 µM.
